Each protein was assayed on pcPET (post-consumer) (assay: Proxy for plastic degradation [Released monomer concentration (HPLC/LC-MS) (MHET+TPA+BHET)]). Details: pH 8; part of the chain shown.

Protein | Proxy for plastic degradation
unnamed (protein) MSNPYQRGPNPTRSALTADGPFSVATYTVSRLSVSGFGGGVIYYPTGTSLTFGGIAMSPGYTADASSLAWLGRRLASHGFVVLVINTNSRFDGPDSRASQLSAALNYLRTSSPSAVRARLDANRLAVAGHSMGGGGTLRIAEQNPSLKAAVPLTPWHTDKTFNTSVPVLIVGAEADTVAPVSQHAIPFYQNLPSTTPKVYVELCNASHIAPNSNNAAISVYTISWMKLWVDNDTRYRQFLCNVNDPALCDFRTNNRHCQL | 90 mM
unnamed (protein) MANPYERGPDPTESSIEAVRGPFAVAQTTVSRLQADGFGGGTIYYPTDTSQGTFGAVAISPGFTAGQESIAWLGPRIASQGFVVITIDTITRFDYPDSRGRQLQAALDHLRTNSVVRNRIDPNRMAVMGHSMGGGGALSAAANNTSLEAAIPLQGWHTRKNWSSVRTPTLVVGAQLDTIAPVSSHSEAFYNSLPSDLDKAYMELRGASHLVSNTPDTTTAKYSIAWLKRFVDDDLRYEQFLCPAPDDFAISEYRSTCPF | 198 mM
unnamed (protein) MANPYERGPDPTESSIEAVRGPFAVAQTTVSRLQADGFGGGTIYYPTDTSQGTFGAVAISPGFTAGQESIAWLGPRIASQGFVVITIDTITRLDQPDSRGRQLQAALDHLRTNSVVRNRIDPNRMAVMGHSMGGGGALSAAANNTSLEAAIPLQGWHTRKNWSSVRTPTLVVGAQLDTIAPVSSHSEAFYNSLPSDLDKAYMELCGASHLVSNTPDTTTAKYSIAWLKRFVDDDLRYEQFLCPAPDDFAICEYRSTCPF | 62 mM
unnamed (protein) MANPYERGPDPTESSIEAVRGPFAVAQTTVSRLQADGFGGGTIYYPTDTSQGTFGAVAISPGFTAGQESIAWLGPRIASQGFVVITIDTITRLDQPDSRGRQLQAALDHLRTNSVVRNRIDPNRMAVMGHSMGGGGALSAAANNTSLEAAIPLQGWHTRKNWSSVRTPTLVVGAQLDTIAPVSSHSEAFYNSLPSDLDKAYMELRGASHLVSNTPDTTTAKYSIAWLKRFVDDDLRYEQFLCPAPDDFAISEYRSTCPF | 70 mM

What follows are proteins tested on gfPET (assay: Proxy for plastic degradation [Relative activity]). Details: pH 8.

Protein | Proxy for plastic degradation
unnamed (protein) MANPYERGPDPTESSIEAVRGPFAVAQTTVSRLQADGFGGGTIYYPTDTSQGTFGAVAISPGFTAGQESIAWLGPRIASQGFVVITIDTITRLDQPDSRGRQLQAALDHLRTNSVVRNRIDPNRMAVMGHSMGGGGALSAAANNTSLEAAIPLQGWHTRKNWSSVRTPTLVVGAQLDTIAPVSSHSEAFYNSLPSDLDKAYMELRGASHSVSNTPDTTTAKYSIAWLKRFVDDDLRYEQFLCPAPDDFAISEYRSTCPF | 94%
unnamed (protein) MANPYERGPDPTESSIEAVRGPFAVAQTTVSRLQADGFGGGTIYYPTDTSQGTFGAVAISPGFTAGQESIAWLGPRIASQGFVVITIDTITRLDQPDSRGRQLQAALDHLRTNSVVRNRIDPNRMAVMGHSMGGGGALSAAANNTSLEAAIPLQGWHTRKNWSSVRTPTLVVGAQLDTIAPVSSHSEAFYNSLPSDLDKAYMELRGASHNVSNTPDTTTAKYSIAWLKRFVDDDLRYEQFLCPAPDDFAISEYRSTCPF | 97%
unnamed (protein) MANPYERGPDPTESSIEAVRGPFAVAQTTVSRLQADGFGGGTIYYPTDTSQGTFGAVAISPGFTAGQESIAWLGPRIASQGFVVITIDTITRLDQPDSRGRQLQAALDHLRTNSVVRNRIDPNRMAVMGHSMGGGGALSAAANNTSLEAAIPLQGWHTRKNWSSVRTPTLVVGAQLDTIAPVSSHSEAFYNSLPSDLDKAYMELRGASHKVSNTPDTTTAKYSIAWLKRFVDDDLRYEQFLCPAPDDFAISEYRSTCPF | 48%
unnamed (protein) MANPYERGPDPTESSIEAVRGPFAVAQTTVSRLQADGFGGGTIYYPTDTSQGTFGAVAISPGFTAGQESIAWLGPRIASQGFVVITIDTITRLDQPDSRGRQLQAALDHLRTNSVVRNRIDPNRMAVMGHSMGGGGALSAAANNTSLEAAIPLQGWHTRKNWSSVRTPTLVVGAQLDTIAPVSSHSEAFYNSLPSDLDKAYMELRGASHYVSNTPDTTTAKYSIAWLKRFVDDDLRYEQFLCPAPDDFAISEYRSTCPF | 68%
unnamed (protein) MANPYERGPDPTESSIEAVRGPFAVAQTTVSRLQADGFGGGTIYYPTDTSQGTFGAVAISPGFTAGQESIAWLGPRIASQGFVVITIDTITRLDQPDSRGRQLQAALDHLRTNSVVRNRIDPNRMAVMGHSMGGGGALSAAANNTSLEAAIPLQGWHTRKNWSSVRTPTLVVGAQLDTFAPVSSHSEAFYNSLPSDLDKAYMELRGASHLVSNTPDTTTAKYSIAWLKRFVDDDLRYEQFLCPAPDDFAISEYRSTCPF | 9%
unnamed (protein) MANPYERGPDPTESSIEAVRGPFAVAQTTVSRLQADGFGGGTIYYPTDTSQGTFGAVAISPGFTAGQESIAWLGPRIASQGFVVITIDTITRLDQPDSRGRQLQAALDHLRTNSVVRNRIDPNRMAVMGHSMGGGGALSAAANNTSLEAAIPLQGWHTRKNWSSVRTPTLVVGAQLDTWAPVSSHSEAFYNSLPSDLDKAYMELRGASHLVSNTPDTTTAKYSIAWLKRFVDDDLRYEQFLCPAPDDFAISEYRSTCPF | 23%
unnamed (protein) MANPYERGPDPTESSIEAVRGPFAVAQTTVSRLQADGFGGGTIYYPTDTSQGTFGAVAISPGFTAGQESIAWLGPRIASQGFVVITIDTITRLDQPDSRGRQLQAALDHLRTNSVVRNRIDPNRMAVMGHSMGGGGALSAAANNTSLEAAIPLQGWHTRKNWSSVRTPTLVVGAQLDTIAPVSSHSEAFYNSLPSDLDKAYMELRGASHIVSNTPDTTTAKYSIAWLKRFVDDDLRYEQFLCPAPDDFAISEYRSTCPF | 54%
unnamed (protein) MANPYERGPDPTESSIEAVRGPFAVAQTTVSRLQADGFGGGTIYYPTDTSQGTFGAVAISPGFTAGQESIAWLGPRIASQGFVVITIDTITRLDQPDSRGRQLQAALDHLRTNSVVRNRIDPNRMAVMGHSMGGGGALSAAANNTSLEAAIPLQGWHTRKNWSSVRTPTLVVGAQLDTIAPVSSHSEAFYNSLPSDLDKAYMELRGASHWVSNTPDTTTAKYSIAWLKRFVDDDLRYEQFLCPAPDDFAISEYRSTCPF | 85%

Same assay, conditions: pH 8; part of the chain shown

Protein | Proxy for plastic degradation
unnamed (protein) MANPYERGPDPTESSIEAVRGPFAVAQTTVSRLQADGFGGGTIYYPTDTSQGTFGAVAISPGFTAGQESIAWLGPRIASQGFVVITIDTITRFDYPDSRGRQLQAALDHLRTNSVVRNRIDPNRMAVMGHSMGGGGALSAAANNTSLEAAIPLQGWHTRKNWSSVRTPTLVVGAQLDTIAPVSSHSEAFYNSLPSDLDKAYMELRGASHLVSNTPDTTTAKYSIAWLKRFVDDDLRYEQFLCPAPDDFAISEYRSTCPF | 100%
unnamed (protein) MANPYERGPDPTESSIEAVRGPFAVAQTTVSRLQADGFGGGTIYYPTDTSQGTFGAVAISPGFTAGQESIAWLGPRIASQGFVVITIDTITRLDQPDSRGRQLQAALDHLRTNSVVRNRIDPNRMAVMGHSMGGGGALSAAANNTSLEAAIPLQGWHTRKNWSSVRTPTLVVGAQLDTIAPVSSHSEAFYNSLPSDLDKAYMELCGASHLVSNTPDTTTAKYSIAWLKRFVDDDLRYEQFLCPAPDDFAICEYRSTCPF | 100%

— the PETadex activity labels (doi:10.1021/acscatal.2c02275)
